This is an account of results in the supplement of paper PMC11246515.

± gives the standard deviation of the averaged measurements.

A short description of this series: total protein half-life in vivo (active degradation + dilution); higher = more stable protein.
Where [1] appears, read: E. coli NCM3722 delta-clpP, growth: N-lim chemostat, doubling time 6 h.
Where [2] appears, read: E. coli NCM3722 delta-hslV, growth: N-lim chemostat, doubling time 6 h.
Where [3] appears, read: E. coli NCM3722 delta-smpB, growth: N-lim chemostat, doubling time 6 h.
Where [4] appears, read: wild type E. coli NCM3722, growth: C-lim chemostat, doubling time 3 h.
The mark [5] stands for this setting: wild type E. coli NCM3722, growth: C-lim chemostat, doubling time 6 h.
[6] abbreviates: wild type E. coli NCM3722, growth: C-lim chemostat, doubling time 12 h.
The mark [7] stands for this setting: wild type E. coli NCM3722, growth: N-lim chemostat, doubling time 6 h.
[8] abbreviates: wild type E. coli NCM3722, growth: N-lim chemostat, doubling time 12 h.
Setting [9] is: wild type E. coli NCM3722, growth: P-lim chemostat, doubling time 12 h.
Where [10] appears, read: E. coli NCM3722 delta-clpP delta-lon delta-hslV, growth: N-lim chemostat, doubling time 6 h.
Setting [11] is: E. coli NCM3722 delta-lon, growth: N-lim chemostat, doubling time 6 h.
Where [12] appears, read: wild type E. coli NCM3722, growth: P-lim chemostat, doubling time 6 h.

For “MKKIAAISLISIFIMSGCAVHNDETSIGKFGLAYKSNIQRKLDNQYYTEAEASLARGRISGAENIVKNDATHFCVTQGKKMQIVELKTEGVGLHGVARLTFKCGE”, the “total protein half-life in vivo” value was determined as 5.75 ± 0.084 h under setting [1]; 6.67 ± 0.98 h under setting [2]; 6.04 ± 0.45 h under setting [3]; 3.03 ± 0.37 h under setting [4]; 5.62 ± 0.76 h under setting [5]; 11.3 ± 0.14 h under setting [6]. The “total protein half-life in vivo” value reads like this: under setting [7], 6.8 ± 0.99 h; under setting [8], 13.1 ± 1.9 h.

Take “MDQVVIFKQIFDKVRNDLNYQWFYSELKRHNVSHYIYYLATENVHIVLKNDNTVLLKGLKNIVSVKFSKDRHLIETTSNKLKSREITFQEYRRNLAKAGVFRWVTNIHEQKRYYYTFDNSLLFTESIQKTTQILPR”: the “total protein half-life in vivo” value is 4.33 h under setting [5] and 5.25 h under setting [9].

Consider “MTHDNKLQVEAIKRGTVIDHIPAQIGFKLLSLFKLTETDQRITIGLNLPSGEMGRKDLIKIENTFLSEDQVDQLALYAPQATVNRIDNYEVVGKSRPSLPERIDNVLVCPNSNCISHAEPVSSSFAVRKRANDIALKCKYCEKEFSHNVVLAN [P0A7F3]”, for which the “total protein half-life in vivo” value under setting [10] worked out at 5.57 ± 0.82 h; the “total protein half-life in vivo” value under setting [1] came out at 4.6 ± 0.65 h; the “total protein half-life in vivo” value under setting [2] is 5.27 ± 1.8 h; the “total protein half-life in vivo” value under setting [11] is 4.92 ± 0.13 h; the “total protein half-life in vivo” value under setting [3] amounted to 5.09 ± 0.11 h; the “total protein half-life in vivo” value under setting [4] came out at 3.33 ± 0.51 h. Further, the “total protein half-life in vivo” value under setting [5] is 5.19 ± 0.14 h; the “total protein half-life in vivo” value under setting [6] was 9.106 ± 0.024 h; the “total protein half-life in vivo” value under setting [7] came out at 4.14 ± 0.12 h; the “total protein half-life in vivo” value under setting [8] worked out at 7.28 ± 0.48 h; the “total protein half-life in vivo” value under setting [12] came out at 5.64 ± 0.66 h; the “total protein half-life in vivo” value under setting [9] stood at 12.2 ± 1 h.

Consider “MKPENKLPVLDLISAEMKTVVNTLQPDLPPWPATGTIAEQRQYYTLERRFWNAGAPEMATRAYMVPTKYGQVETRLFCPQPDSPATLFYLHGGGFILGNLDTHDRIMRLLASYSQCTVIGIDYTLSPEARFPQAIEEIVAACCYFHQQAEDYQINMSRIGFAGDSAGAMLALASALWLRDKQIDCGKVAGVLLWYGLYGLRDSVTRRLLGGVWDGLTQQDLQMYEEAYLSNDADRESPYYCLFNNDLTREVPPCFIAGAEFDPLLDDSRLLYQTLAAHQQPCEFKLYPGTLHAFLHYSRMMKTADEALRDGAQFFTAQL”, for which the “total protein half-life in vivo” value reads like this: under setting [4], 3.18 ± 0.17 h; under setting [5], 5.349 ± 0.029 h; under setting [6], 8.02 ± 2.3 h; under setting [8], 11.6 h; under setting [12], 5.69 ± 1.1 h; under setting [9], 10.9 ± 1.4 h.

Turning to “MAVNLLKKNSLALVASLLLAGHVQATELLNSSYDVSRELFAALNPPFEQQWAKDNGGDKLTIKQSHAGSSKQALAILQGLKADVVTYNQVTDVQILHDKGKLIPADWQSRLPNNSSPFYSTMGFLVRKGNPKNIHDWNDLVRSDVKLIFPNPKTSGNARYTYLAAWGAADKADGGDKGKTEQFMTQFLKNVEVFDTGGRGATTTFAERGLGDVLISFESEVNNIRKQYEAQGFEVVIPKTNILAEFPVAWVDKNVQANGTEKAAKAYLNWLYSPQAQTIITDYYYRVNNPEVMDKLKDKFPQTELFRVEDKFGSWPEVMKTHFTSGGELDKLLAAGRN”, the “total protein half-life in vivo” value under setting [10] worked out at 4.09 ± 0.2 h; the “total protein half-life in vivo” value under setting [1] turned out to be 5.26 ± 0.17 h; the “total protein half-life in vivo” value under setting [2] came to 6.24 ± 0.08 h; the “total protein half-life in vivo” value under setting [11] came to 6.861 ± 0.011 h; the “total protein half-life in vivo” value under setting [3] is 5.74 ± 0.07 h; the “total protein half-life in vivo” value under setting [4] was found to be 3.3 ± 0.27 h. The “total protein half-life in vivo” value reads like this: under setting [5], 6.1057 ± 0.00027 h; under setting [6], 10 ± 0.37 h; under setting [7], 6.338 ± 0.056 h; under setting [8], 12.8 ± 0.46 h; under setting [12], 6.18 ± 0.1 h; under setting [9], 12.4 ± 0.31 h.

For “MSKISDLNYSQHITLADNFKQKSEVLNTWRVGMNDFARIAGGQDNRRNILSPGAFLEFLAKIFTLGYVDFSKRSNEAGRNMMAHIKSSSYSKDTNGNEKMKFYMNNPVGERADSPKVIIEISLSTITTMGTRQGHTAIIFPQPDGSTNRYEGKSFERKDESSLHLITNKVLACYQSEANKKIARLLNNNQELNNLQKLNNLQKLNNLLKLNNIQGLNNPQELNNPQNLNDSQELNNSQELNSPQELNDPQELNNSQDLNNSKVSCTVSVDSTITGLLKEPLNNALLAIRNEHLLLMPHVCDESISYLLGEKGILEEIDKLYALNDHGIDNDKVGNNEINDIKVNLSHILIDSLDDAKVNLTPVIDSILETFSKSPYINDVRILDWCFNKSMQYFDDTKKIKHACSVINHINLRSDQSKIAETLFFNLDKEPYKNSPELQGLIWNKLVVYVNEFNLSNREKTNLIQRLFDNVESIFNEVPVSILVNDIFMNDFFMKNPEMINWYFPQLLKSYEGEKIYFDNLKYDLNDNDKESNKEILKNQPDNVIKEKLNNEYKLRFRMMQTILQSRVNVLPYINEQRLNKLNPPENLRIAIEHFGWKNRPITA”, the “total protein half-life in vivo” value turned out to be 5.05 h under setting [10]; 4.13 ± 0.42 h under setting [1]; 4.07 h under setting [2]; 3.78 h under setting [11]; 1.27 h under setting [4]; 3.95 ± 2.7 h under setting [5]. The “total protein half-life in vivo” value is, setting by setting: under setting [6], 8.85 h; under setting [12], 2.71 h; under setting [9], 2.84 ± 1.1 h.

As to “MTTQYGFFIDSSRCTGCKTCELACKDFKDLGPEVSFRRIYEYAGGDWQEDNGVWHQNVFAYYLSISCNHCDDPACTKVCPSGAMHKREDGFVVVDEDVCIGCRYCHMACPYGAPQYNAEKGHMTKCDGCYSRVAEGKQPICVESCPLRALEFGPIEELRQKHGTLAAVAPLPRAHFTKPNIVIKPNANSRPTGDTTGYLANPEEV [P0AAJ1]”, the “total protein half-life in vivo” value under setting [10] stood at 4.03 h.

Consider “MRRFFWLVAAALLLAGCAGEKGIVEKEGYQLDTRRQAQAAYPRIKVLVIHYTADDFDSSLATLTDKQVSSHYLVPAVPPRYNGKPRIWQLVPEQELAWHAGISAWRGATRLNDTSIGIELENRGWQKSAGVKYFAPFEPAQIQALIPLAKDIIARYHIKPENVVAHADIAPQRKDDPGPLFPWQQLAQQGIGAWPDAQRVNFYLAGRAPHTPVDTASLLELLARYGYDVKPDMTPREQRRVIMAFQMHFRPTLYNGEADAETQAIAEALLEKYGQD”, for which the “total protein half-life in vivo” value reads like this: under setting [10], 6.4 ± 0.46 h; under setting [1], 6.3559 ± 0.0044 h; under setting [2], 6.75 ± 0.56 h; under setting [11], 7.41 ± 0.34 h; under setting [3], 5.75 ± 0.39 h; under setting [4], 3.0599 ± 3.5e-05 h. Moreover, the “total protein half-life in vivo” value was determined as 11.2 ± 0.38 h under setting [6], 12.4 ± 0.43 h under setting [8], 5.63 ± 1.1 h under setting [12] and 13.9 ± 1.3 h under setting [9].

In the case of “MLNQELELSLNMAFARAREHRHEFMTVEHLLLALLSNPSAREALEACSVDLVALRQELEAFIEQTTPVLPASEEERDTQPTLSFQRVLQRAVFHVQSSGRNEVTGANVLVAIFSEQESQAAYLLRKHEVSRLDVVNFISHGTRKDEPTQSSDPGSQPNSEEQAGGEERMENFTTNLNQLARVGGIDPLIGREKELERAIQVLCRRRKNNPLLVGESGVGKTAIAEGLAWRIVQGDVPEVMADCTIYSLDIGSLLAGTKYRGDFEKRFKALLKQLEQDTNSILFIDEIHTIIGAGAASGGQVDAANLIKPLLSSGKIRVIGSTTYQEFSNIFEKDRALARRFQKIDITEPSIEETVQIINGLKPKYEAHHDVRYTAKAVRAAVELAVKYINDRHLPDKAIDVIDEAGARARLMPVSKRKKTVNVADIESVVARIARIPEKSVSQSDRDTLKNLGDRLKMLVFGQDKAIEALTEAIKMARAGLGHEHKPVGSFLFAGPTGVGKTEVTVQLSKALGIELLRFDMSEYMERHTVSRLIGAPPGYVGFDQGGLLTDAVIKHPHAVLLLDEIEKAHPDVFNILLQVMDNGTLTDNNGRKADFRNVVLVMTTNAGVRETERKSIGLIHQDNSTDAMEEIKKIFTPEFRNRLDNIIWFDHLSTDVIHQVVDKFIVELQVQLDQKGVSLEVSQEARNWLAEKGYDRAMGARPMARVIQDNLKKPLANELLFGSLVDGGQVTVALDKEKNELTYGFQSAQKHKAEAAH [P0ABH9]”, the “total protein half-life in vivo” value runs as follows: under setting [10], 6.61 ± 0.43 h; under setting [1], 6.29 ± 0.55 h; under setting [2], 0.877 ± 0.22 h; under setting [11], 0.987 ± 0.069 h; under setting [3], 0.823 ± 0.015 h; under setting [4], 0.7994 ± 0.0018 h. In addition, the “total protein half-life in vivo” value by setting is: under setting [5], 0.97 ± 0.039 h; under setting [6], 1.14 ± 0.28 h; under setting [7], 1.03 ± 0.18 h; under setting [8], 1.046 ± 0.0038 h; under setting [12], 0.795 ± 0.2 h; under setting [9], 1.56 ± 0.78 h.
